Source: the supplement of paper PMC6757056
± gives the standard deviation of the averaged measurements.

B1: library; a variant is named by its letters at N, in order (parent)
chain: GCUGUCACCGGUGCUUGGUACGUUAUAUUCAGCCGGUCUGAUGAGUCUNNNNNNAGACGAAACAGC
B2: library; a variant is named by its letters at N, in order (parent)
chain: GCUGUCACCGAGAAACUGUGAAGUAUAUCUUAAACCUGGGCACUUAAAAGAUAUAUGGAGUUAGUAGUGCAACCUGCUCGGUCUGAUGAGUCCNNNNNNGGACGAAACAGC

How the values were obtained:
(6R,S)-folinic acid [1] = variants of: B1; test: normalized RNA/DNA level without ligand (relative to sTRSVctl = 100) (log10 (% of sTRSVctl)); HEK293T overexpressing SLC46A1; higher = less ribozyme self-cleavage, higher mRNA level; conditions: without (6R,S)-folinic acid; ligand present: no
Procedure, shortened: (§1)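 For each 6-well well, 4 µg of library plasmid encoding mCherry-linked ribozyme switches, or eGFP-linked ones in some ligand experiments, was transfected into HEK293T. Any ligand was added 1 h before transfection, and RNA was extracted with EDTA 72 h after it, then reverse-transcribed, amplified, barcoded and sequenced. RNA level was obtained by dividing RNA reads by DNA reads, normalizing to a spiked-in non-cleaving sequence or to the top sequences, then scaling and log-transforming. The top set was 25 sequences, scaling was ×100 with log10, and ≥100 DNA reads were required.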

(6R,S)-folinic acid [2] = variants of: B1; test: normalized RNA/DNA level with ligand (relative to sTRSVctl = 100) (log10 (% of sTRSVctl)); HEK293T overexpressing SLC46A1; ligand concentration (+) RNA-Seq: 6 mM; higher = less ribozyme self-cleavage, higher mRNA level; conditions: with (6R,S)-folinic acid; ligand present: yes
Procedure, shortened: as §1

cyclic di-GMP [3] = variants of: B2; test: FACS-Seq fitted mean relative fluorescence mCherry/BFP without ligand (log10 relative fluorescence); HEK293T; ligand: cyclic di-GMP (c-di-GMP-II aptamer); higher = higher reporter protein expression; conditions: ligand present: no
Experimental: (§2)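 Hammerhead (sTRSV) ribozyme switch libraries with a ligand aptamer grafted on stem I and a randomized N4-6 loop II, cloned into the 3' UTR of mCherry and transiently transfected into HEK293T cells; RNA-Seq 72 h post transfection with ligand added 1 h before transfection; RNA read count / plasmid DNA read count normalized to the non-cleaving sTRSVctl (x100), log10; sequences with >100 DNA reads. FACS-Seq: lentiviral library sorted into 6 bins after 48 h ligand, log-normal fit mean of mCherry/BFP scaled to controls. Printed sequences are partial switch sequences.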

cyclic di-GMP [4] = variants of: B2; test: normalized RNA/DNA level without ligand (relative to sTRSVctl = 100) (log10 (% of sTRSVctl)); HEK293T; ligand: cyclic di-GMP (c-di-GMP-II aptamer); higher = less ribozyme self-cleavage, higher mRNA level; conditions: reporter: mCherry (pCS4076), ligand present: no
Experimental: as §2

cyclic di-GMP [5] = variants of: B2; test: FACS-Seq fitted mean relative fluorescence mCherry/BFP with ligand (log10 relative fluorescence); HEK293T; ligand: cyclic di-GMP (c-di-GMP-II aptamer); ligand concentration (+) FACS-Seq: 1 mM; higher = higher reporter protein expression; conditions: ligand present: yes
Experimental: as §2

cyclic di-GMP [6] = variants of: B2; test: normalized RNA/DNA level with ligand (relative to sTRSVctl = 100) (log10 (% of sTRSVctl)); HEK293T; ligand: cyclic di-GMP (c-di-GMP-II aptamer); ligand concentration (+) RNA-Seq: 1 mM; higher = less ribozyme self-cleavage, higher mRNA level; conditions: reporter: mCherry (pCS4076), ligand present: yes
Experimental: as §2

Row | Variant | normalized RNA/DNA level without ligand (log10) ((6R,S)-folinic acid [1]) | normalized RNA/DNA level with ligand (log10) ((6R,S)-folinic acid [2]) | FACS-Seq fitted mean (log10) (cyclic di-GMP [3]) | normalized RNA/DNA level without ligand (log10) (cyclic di-GMP [4]) | FACS-Seq fitted mean (log10) (cyclic di-GMP [5]) | normalized RNA/DNA level with ligand (log10) (cyclic di-GMP [6])
1 | UUUUGU | 1.957 ± 0.014 | 2 ± 0.046 | – | – | – | –
2 | CUUUCG | 2.047 ± 0.0046 | 2.053 ± 0.0034 | – | – | – | –
3 | CUUUCU | 1.998 ± 0.005 | 1.99 ± 0.035 | – | – | – | –
4 | CUUUCC | 2.02 ± 0.03 | 2 ± 0.021 | – | – | – | –
5 | CUUUCA | 1.992 ± 0.013 | 2.01 ± 0.077 | – | – | – | –
6 | AUUCCA | 2.009 ± 0.0091 | 2.02 ± 0.047 | – | – | – | –
7 | AUUCCU | 2.044 ± 0.0048 | 2.047 ± 0.018 | – | – | – | –
8 | AUUCCG | 1.997 ± 0.0068 | 2.037 ± 0.018 | – | – | – | –
9 | AUUCCC | 2.018 ± 0.019 | 1.99 ± 0.052 | – | – | – | –
10 | GUUUAU | 1.99 ± 0.02 | 1.99 ± 0.031 | – | – | – | –
11 | GUUUAC | 2.02 ± 0.028 | 2.016 ± 0.002 | – | – | – | –
12 | GUUUAA | 1.989 ± 0.0071 | 1.99 ± 0.025 | – | – | – | –
13 | CUUUGA | 2.024 ± 0.004 | 2.05 ± 0.036 | – | – | – | –
14 | CUUUGC | 2.047 ± 0.017 | 2.027 ± 0.016 | – | – | – | –
15 | CUUUGG | 2.023 ± 0.0097 | 1.994 ± 0.013 | – | – | – | –
16 | CUUUGU | 1.986 ± 0.008 | 1.99 ± 0.022 | – | – | – | –
17 | UUUGAC | 2.012 ± 0.0044 | 2.011 ± 0.018 | – | – | – | –
18 | AUUUUU | 1.989 ± 0.017 | 2.01 ± 0.029 | – | – | – | –
19 | AUUCUU | 2.02 ± 0.027 | 2.04 ± 0.023 | – | – | – | –
20 | AUUCUA | 2.005 ± 0.0047 | 1.999 ± 0.01 | – | – | – | –
21 | AUUCUG | 1.94 ± 0.011 | 1.99 ± 0.043 | – | – | – | –

Row | Variant | normalized RNA/DNA level without ligand (log10) ((6R,S)-folinic acid [1]) | normalized RNA/DNA level with ligand (log10) ((6R,S)-folinic acid [2]) | FACS-Seq fitted mean (log10) (cyclic di-GMP [3]) | normalized RNA/DNA level without ligand (log10) (cyclic di-GMP [4]) | FACS-Seq fitted mean (log10) (cyclic di-GMP [5]) | normalized RNA/DNA level with ligand (log10) (cyclic di-GMP [6])
22 | AUUCUC | 2.072 ± 0.012 | 2.04 ± 0.042 | – | – | – | –
23 | UAAACA | – | – | 0.0579 ± 0.081 | 1.742 ± 0.0053 | 0.349 ± 0.078 | 1.85 ± 0.079
24 | CAAACA | – | – | -0.651 ± 0.025 | 1.34 ± 0.069 | -0.439 ± 0.079 | 1.62 ± 0.11
25 | CAAAAC | – | – | -0.495 ± 0.03 | 1.58 ± 0.055 | -0.278 ± 0.08 | 1.77 ± 0.14
26 | CAAAAA | – | – | -0.703 ± 0.047 | 1.21 ± 0.087 | -0.444 ± 0.071 | 1.46 ± 0.079
27 | CAAAAU | – | – | -0.237 ± 0.17 | 1.45 ± 0.11 | 0.0784 ± 0.017 | 1.65 ± 0.085
28 | AAAACG | – | – | -0.442 ± 0.098 | 1.5 ± 0.072 | -0.105 ± 0.12 | 1.71 ± 0.079
29 | CAAAGA | – | – | -0.231 ± 0.15 | 1.47 ± 0.074 | 0.00425 ± 0.022 | 1.68 ± 0.1
30 | CAAAGU | – | – | 0.000886 ± 0.21 | 1.7 ± 0.032 | 0.204 ± 0.087 | 1.79 ± 0.12
31 | CAACAA | – | – | -0.326 ± 0.062 | 1.37 ± 0.11 | 0.0147 ± 0.011 | 1.53 ± 0.1
32 | CAACAU | – | – | -0.377 ± 0.0095 | 1.43 ± 0.089 | -0.0626 ± 0.039 | 1.64 ± 0.13
33 | AAACGG | – | – | -0.275 ± 0.019 | 1.5 ± 0.12 | 0.0867 ± 0.11 | 1.7 ± 0.1
34 | CAAAUA | – | – | -0.296 ± 0.0065 | 1.28 ± 0.11 | -0.211 ± 0.2 | 1.46 ± 0.14
35 | CAAAUU | – | – | -0.59 ± 0.046 | 1.45 ± 0.12 | -0.349 ± 0.046 | 1.67 ± 0.076
36 | GAAAAU | – | – | -0.15 ± 0.048 | 1.55 ± 0.048 | 0.162 ± 0.015 | 1.74 ± 0.1
37 | GAAAAA | – | – | -0.369 ± 0.068 | 1.41 ± 0.1 | -0.0537 ± 0.033 | 1.61 ± 0.12
38 | GAAAAG | – | – | -0.45 ± 0.058 | 1.575 ± 0.0029 | -0.228 ± 0.032 | 1.74 ± 0.14
39 | UAAAUG | – | – | 0.102 ± 0.084 | 1.62 ± 0.0043 | 0.384 ± 0.037 | 1.83 ± 0.12
40 | UAAAUU | – | – | 0.0621 ± 0.17 | 1.631 ± 0.016 | 0.394 ± 0.011 | 1.77 ± 0.11
41 | UAAAUA | – | – | -0.362 ± 0.037 | 1.654 ± 0.0031 | -0.139 ± 0.088 | 1.78 ± 0.059
42 | GAAACA | – | – | -0.441 ± 0.093 | 1.61 ± 0.023 | -0.185 ± 0.018 | 1.73 ± 0.1
